Values quoted from earlier work as cited in doi:10.1101/2024.09.05.611512.

Experiments:
S100A10 (Homo sapiens) = S100A10 (Homo sapiens) (UniProt P60903)
[1] = molecular target: calpain 1 & 2 (Homo sapiens) (UniProt P07384)
UniProt P07384, sequence (P07384 2-714): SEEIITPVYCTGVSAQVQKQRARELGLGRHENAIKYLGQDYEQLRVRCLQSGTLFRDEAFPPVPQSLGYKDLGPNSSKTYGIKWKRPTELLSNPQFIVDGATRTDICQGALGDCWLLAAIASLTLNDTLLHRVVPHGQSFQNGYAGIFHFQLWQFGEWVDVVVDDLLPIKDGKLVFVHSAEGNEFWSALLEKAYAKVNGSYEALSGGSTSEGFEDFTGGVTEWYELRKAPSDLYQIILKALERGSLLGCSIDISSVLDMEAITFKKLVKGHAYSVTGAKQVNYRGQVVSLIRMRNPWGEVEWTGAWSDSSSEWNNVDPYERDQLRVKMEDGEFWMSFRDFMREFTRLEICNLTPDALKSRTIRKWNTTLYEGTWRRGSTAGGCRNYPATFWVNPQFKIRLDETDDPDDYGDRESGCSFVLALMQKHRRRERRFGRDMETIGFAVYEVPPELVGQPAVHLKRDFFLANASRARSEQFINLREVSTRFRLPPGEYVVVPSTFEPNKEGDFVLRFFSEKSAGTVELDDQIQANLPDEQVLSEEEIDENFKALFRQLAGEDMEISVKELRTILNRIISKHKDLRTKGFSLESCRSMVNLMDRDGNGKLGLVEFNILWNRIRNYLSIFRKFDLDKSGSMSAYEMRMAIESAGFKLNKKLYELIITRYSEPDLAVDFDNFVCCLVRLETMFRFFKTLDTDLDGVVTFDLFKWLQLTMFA

UniProt P60903, sequence (P60903 whole entry): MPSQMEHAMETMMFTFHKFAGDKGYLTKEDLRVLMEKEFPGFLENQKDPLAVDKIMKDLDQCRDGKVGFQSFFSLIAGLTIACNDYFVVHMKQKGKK

Kd (S100A10 (Homo sapiens)) [nM] | Ki [1] [nM] | Substance
13 | – | annexin A2 first 10-12 residues (from UniProt P07355)
– | 15 | calpastatin domain I (from UniProt P20810)
